By pKd is commonly meant −log10 of the Kd, conventionally taken in molar units. The low end stands for a large Kd, the high end for a small Kd.

pKd: −log10 of the molar value.

In the assay the target is human CD38 on cells (human) (UniProt P28907). The assay is described as follows: FACS Scatchard, IgG1 on Raji cells.

For Chimeric OKT10 (antibody), the negative logarithm of the Kd (pKd) is 8.08.

The record behind these values is US20240309109A1.
